From patent US8465735B2, “Variant form of urate oxidase and use thereof” (Savient Pharmaceuticals, Inc., priority 2005, dated 2013) come the findings set out here.

For the data set, the system named is O=c1[nH]c(=O)c2[nH]c(=O)[nH]c2[nH]1. In words: purified protein, by the assay type. The settings on record: other: sodium borate buffer, pH 9.2, 25.0 °C.

Description: Activity of uricase was measured by a UV method. […] Uricase potency is expressed in activity units per mg protein (U/mg).
The absorbance change with time (ΔA292 per minute) was derived from the linear portion of the curve.
The specific activity (potency) of uricase was calculated by dividing the activity in U/ml with protein concentration in mg/ml.

Broadly, the Km is the concentration of substrate that gives half-maximal velocity. By kcat is commonly meant the number of substrate molecules converted per active site and unit of time at saturation. Regarding “A. flavus (Aspergillus flavus) uricase, native (Merck) (Aspergillus flavus)”, the Michaelis constant (Km) was 23.54 µM and the kcat came to 11.2 s⁻¹.
